Test results published in US10925971B2, “Methods of treating PRLR positive breast cancer” (Regeneron Pharmaceuticals, Inc., priority 2016, dated 2021).
Where two headings read alike, the source gives them in different places.

Experiments:
[1] = test system: HEK293 (293) cells; assay: In vitro cell viability (cell kill) assay, CCK8; assay type: cell-based, human
From the text: (§1) PRLR-overexpressing cells, including HEK293, PC3, MCF7 and NCI-N87, were generated to assess the ability of anti-PRLR conjugated antibodies to reduce cell viability. For comparative purposes, PC3 and T47D cells with overexpressed ErbB2 were also generated, as well as an MCF7 cell line over-expressing both hPRLR and hErbB2. Briefly, Lipofectamine® 2000-mediated transfection methodology was utilized to generate HEK293 cells expressing human PRLR (HEK293/hPRLR) or human ErbB2 (HEK293/hErbB2). Lipofectamine LTX with Plus Reagent was used to generate PC3 cells expressing human PRLR (PC3/hPRLR) or human ErbB2 (PC3/hErbB2). Lentiviral-mediated transduction was utilized to generate MCF7 cells expressing human PRLR (MCF7/hPRLR), NCI-N87 cells expressing human PRLR (NCI-N87/hPRLR), T47D cells over-expressing human ErbB2 (T47D/hErbB2), and MCF7 cells expressing both human PRLR and human ErbB2 (MCF7/hPRLR/hErbB2). All lines were selected for at least two weeks in complete growth media plus appropriate selection reagents. Stably expressing populations were enriched for PRLR expression via FACS using the anti PRLR antibody Control I.
(§2) Next, the ability of anti-PRLR-DM1 antibody-drug conjugates (i.e., anti-PRLR antibodies conjugated to DM1 via a non-cleavable linker [SMCC]) to reduce cell viability was determined using in vitro cell based assays. Cells were seeded in PDL-coated 96 well plates at 1500 to 10000 cells per well in complete growth media and allowed to grow overnight. For cell viability curves, ADCs or free DM1 (as the methyl disulfide derivative DM1-SMe) were added to the cells at final concentrations ranging from 500 nM to 5 pM and incubated for 3 days. The 293, PC3 and T47D cells were incubated with CCK8 (Dojindo, Rockville, Md.) for the final 1-3 hours and the absorbance at 450 nm (OD450) was determined on a Flexstation3 (Molecular Devices, Sunnyvale, Calif.). MCF7 cells were treated with Hoechst 33342 nuclear stain while being fixed with 4% formaldehyde. Images were acquired on the ImageXpress micro XL (Molecular Devices, Sunnyvale, Calif.) and nuclear counts were determined via Columbus image analysis software (Perkin Elmer, Shelton, Conn.). Background OD450 values (PC3, 293, and T47D) or nuclear counts (MCF7) from digitonin (40 nM) treated cells was subtracted from all wells and viability was expressed as a percentage of the untreated controls. IC50 values were determined from a four-parameter logistic equation over a 10-point response curve (GraphPad Prism).

[2] = test system: T47D cells; assay: In vitro cell viability (cell kill) assay, CCK8; assay type: cell-based, human; settings: T47D; for IC50: read-out: IC50
Procedure: as §2

[3] = test system: MCF7/hPRLR (MCF7/PRLR) cells; assay: In vitro cell viability (cell kill) assay, nuclear counts; assay type: cell-based, human; settings: Table 20
From the text: as §1, §2

[4] = test system: MCF7 (MCF7/ATCC) cells; assay: as above; assay type: cell-based, human; settings: MCF7/ATCC; Table 20
From the text: as §1, §2

[5] = test system: PRLR expressing cells; assay: In vitro cell viability (cell kill) assay, several cell backgrounds; assay type: cell-based, human; settings: PC3/hPRLR and MCF7/hPRLR cell lines
From the text: as §1, §2

[6] = test system: PC3 cells; assay: In vitro cell viability (cell kill) assay, CCK8; assay type: cell-based, human
From the text: as §1, §2

[7] = test system: T47D#11 tumors; assay type: in vivo, CB17 SCID mice; settings: for Final Tumor size mm^3 (mean ± SEM) / Average Tumor Growth Inhibition (%): T47D#11 tumors, SCID mice, Day 66; for T47D #11 tumor growth: repeat dosing 5 and 15 mg/kg
From the text: (§3) Briefly, 20×10^6 MCF7/PRLR cells (ATCC HTB-22 transfected with full length hPRLR as previously described) were implanted subcutaneously into the left mammary fat pad of female NCr nude mice. In other studies, 10×10^6 PC3/PRLR (ATCC CRL-1435 transfected with full length hPRLR as previously described) were implanted subcutaneously into the left flank of male SCID mice. Additionally, 10×10^6 parental T47D (ATCC HTB-133) or 7.5×10^10 T47D #11 cells (ATCC HTB-133 serially passaged in vivo as described below) were subcutaneously implanted into the left flank of female CB17 SCID mice. All mice were obtained from Taconic (Hudson, N.Y.). Each bolus of cells was supplemented with a 90-day estrogen release pellet (1.7 mg/pellet; Innovative Research America, Sarasota Fla.). […] Control reagents included PBS vehicle, free methyl-disulfide DM1 (DM1-SMe) and isotype Control 1-DM1.
(§4) In multi-dose studies, mice were dosed once a week for a total of three weeks with tumor volumes and body weights being monitored twice weekly throughout the study. Test ADCs were dosed at 5 and/or 15 mg/kg in the multi-dose studies. In single-dose studies, mice received a single dose of test ADC, and tumor volumes and body weights were monitored twice weekly throughout the study. Test ADCs were dosed at 1, 2.5, 5, and 15 mg/kg in the single-dose studies. Average tumor size as well as tumor growth inhibition relative to the vehicle treated group were calculated for each group. Tumors were measured with calipers twice a week until the average size of the vehicle group reached 1000 mm^3. Tumor size was calculated using the formula (length×width^2)/2. Tumor growth inhibition was calculated according to the following formula: (1−((Tfinal−Tinitial)/(Cfinal−Cinitial)))*100, where T (treated group) and C (control group) represent the mean tumor mass on the day the vehicle group reached 1000 mm^3. […] Results are summarized in Tables 21-25 (multi-dose) and Table 26 (single dose). (NT=not tested in the particular experiment shown).

[8] = test system: PC3/PRLR tumors; assay: PC3/PRLR xenograft, tumor size and tumor growth inhibition; assay type: in vivo, SCID mice; settings: PC3/PRLR tumors TRIAL #2, SCID mice, Day 55
From the text: as §3, §4

[9] = test system: MCF7/PRLR tumors; assay: MCF7/PRLR breast cancer xenograft, tumor size and tumor growth inhibition; assay type: in vivo, NCr nude mice; settings: MCF7/PRLR tumors TRIAL #2, NCr Nude mice, Day 63
From the text: as §3, §4

`COc1cc2cc(c1Cl)N(C)C(=O)C[C@H](OC(=O)[C@H](C)N(C)C(=O)CCC(C)(C)S)[C@]1(C)O[C@H]1[C@H](C)[C@@H]1C[C@@](O)(NC(=O)O1)[C@H](OC)/C=C/C=C(\C)C2` [Free DM4] was tested, and the “% Kill” value ([1]; 293, Table 19) was 100%, the IC50 ([1]; 293, Table 19) was 0.6 nM and the “% Kill” value ([2]; Table 19) was 100%. For the same molecule, the IC50 ([2]; Table 19) was 0.5 nM, the “% Kill” value [3] was 90% and the IC50 [3] was 2 nM. For the same molecule, the “% Kill” value [4] was 90% and the IC50 [4] was 1.3 nM.

For `COc1cc2cc(c1Cl)N(C)C(=O)C[C@H](OC(=O)[C@H](C)N(C)C(=O)CCSSC)[C@]1(C)O[C@H]1[C@H](C)[C@@H]1C[C@@](O)(NC(=O)O1)[C@H](OC)/C=C/C=C(\C)C2` [Me-SS-May Free DM1], the “% Kill” value ([1]; HEK293, Table 13, without PRL) was 94%, the IC50 ([1]; HEK293, Table 13, without PRL) was 0.6 nM and the “% Kill” value ([2]; Table 13, without PRL) was 100%. For the same molecule, the IC50 ([2]; Table 13, without PRL) was 0.3 nM.

B1: H1H6953-mc-vc-PAB-MMAE (conjugate)
VH: EVQLLESGGGLVQPGGTLRLSCAASGFTFSAYAMSWVRQAPGKGLEWVSSINVRAGDTYYADSVKGRFTISRDNSKNTLFLLMNSLRAEDTAAYYCAKARYSSNWGFDFWGQGTLVTVSS
VL: DIVMTQSPDSLTVSLGARTTINCQSSQTILHSSNNHNYLAWYQQKPGLPPKLLIYWSSTRESGVPDRFSGSGSGTDFTLTISSLQAEDVAIYYCQQYSNTPYTFGQGTKLEIN
With B1 the “cell killing, non-cleavable DM1 ADCs versus cleavable MMAE ADCs” value [5] was “nearly equivalent cell killing”.

B2: H1H6765P-DM1: anti-PRLR antibody H1H6765P conjugated to DM1 through an SMCC linker (conjugate)
VH: EVQLVESGGGVVRPGGSLRLSCVGSGFSFDDHGMNWVRQGPGKGLEWVSGFNWNGGSTNYAESVKGRFTISRDNARNSLFLQMNSLRAEDTALYYCVRGRSGWFNDAFDVWGPGTMVTVSS
VL: EIVLTQSPGTLSLSPGERATLSCRASQTINSNYLAWYRQKPGQTPRLLIYGTSSRATGIPDRFSGSGSGTDFSLTISRLEPEDFAVFYCQQYAGLPTFGPGTKVDIK
For B2, the IC50 ([6]; Table 11, 3 days) was 200 nM, the “cell killing, non-cleavable DM1 ADCs versus cleavable MMAE ADCs” value [5] was “nearly equivalent cell killing” and the “Final Tumor size mm^3 (mean ± SEM)” value ([7]; multi-dose 5 mg/kg) was 183 ± 28 mm^3. For the same molecule, the “Average Tumor Growth Inhibition (%)” value ([7]; multi-dose 15 mg/kg) was 111%, the “Final Tumor size mm^3 (mean ± SEM)” value ([7]; multi-dose 15 mg/kg) was 69 ± 12 mm^3 and the “T47D #11 tumor growth” value [7] was “potently inhibited tumor growth”. The “Final Tumor size mm^3 (mean ± SEM)” value ([8]; multi-dose 5 mg/kg) was 489 ± 70 mm^3, the “Average Tumor Growth Inhibition (%)” value ([8]; multi-dose 15 mg/kg) was 98% and the “Final Tumor size mm^3 (mean ± SEM)” value ([8]; multi-dose 15 mg/kg) was 181 ± 42 mm^3. The “Average Tumor Growth Inhibition (%)” value ([9]; multi-dose 5 mg/kg) was 122%, the “Average Tumor Growth Inhibition (%)” value ([9]; multi-dose 15 mg/kg) was 136% and the “Final Tumor size mm^3 (mean ± SEM)” value ([9]; multi-dose 15 mg/kg) was 0 ± 0 mm^3.

B3: H1H6765-mc-VC-PAB-MMAE (conjugate)
VH: EVQLVESGGGVVRPGGSLRLSCVGSGFSFDDHGMNWVRQGPGKGLEWVSGFNWNGGSTNYAESVKGRFTISRDNARNSLFLQMNSLRAEDTALYYCVRGRSGWFNDAFDVWGPGTMVTVSS
VL: EIVLTQSPGTLSLSPGERATLSCRASQTINSNYLAWYRQKPGQTPRLLIYGTSSRATGIPDRFSGSGSGTDFSLTISRLEPEDFAVFYCQQYAGLPTFGPGTKVDIK
In the case of B3, the “cell killing, non-cleavable DM1 ADCs versus cleavable MMAE ADCs” value [5] is reported as “nearly equivalent cell killing”.

B4: H1H6958N2-mc-VC-PAB-MMAE (conjugate)
VH: QVQLVESGGGVVQPGRSLRLSCGASGFTFRNYGMQWVRQGPGKGLEWVTLISFDGNDKYYADSVKGRFTISRDNSKNTLFLQMNSLRTEDTAVYYCARGGDFDYWGQGTLVTVSS
VL: DIQMTQSPSSLSASVGDRVTITCRASQDIRKDLGWYQQKPGKAPKRLIYAASSLHSGVPSRFSGSGSGTEFTLTISSLQPEDFATYYCLQHNSYPMYTFGQGTKLEIK
In the case of B4, the “% Kill” value ([6]; Table 18) is reported as 39% and the “cell killing, non-cleavable DM1 ADCs versus cleavable MMAE ADCs” value [5] is reported as “nearly equivalent cell killing”.

B5: H1H6782P-DM1: anti-PRLR antibody H1H6782P conjugated to DM1 through an SMCC linker (conjugate)
VH: EVQLVESGGGLVQPGRSLRLSCAASGFTFDDYAMHWVRQAPGKGLEWVSGIIWNSGHIGYGDSVKGRFTISRDNAKKSLYLQMNSLRAEDTALYYCARDSGRYQSYFDYWGQGTLVTVSS
VL: DIQMTQSPSTLSASVGDRVTITCRASHIISSWLAWYQQKPGKAPKVLIFKASSLESGVPSRFSGSGSGTEFTLTISSLQPDDFATYYCQQYNTYSRTFGQGTKVEIK
B5 was tested, and the “% Kill” value ([6]; Table 11, 3 days) was 67%, the “% Kill” value ([1]; 293, Table 11, 3 days) was 86% and the “Final Tumor size mm^3 (mean ± SEM)” value ([7]; multi-dose 5 mg/kg) was 293 ± 20 mm^3. The “Average Tumor Growth Inhibition (%)” value ([7]; multi-dose 15 mg/kg) was 106%, the “Final Tumor size mm^3 (mean ± SEM)” value ([7]; multi-dose 15 mg/kg) was 124 ± 36 mm^3 and the “T47D #11 tumor growth” value [7] was “potently inhibited tumor growth”. For the same molecule, the “Average Tumor Growth Inhibition (%)” value ([8]; multi-dose 5 mg/kg) was 69%, the “Final Tumor size mm^3 (mean ± SEM)” value ([8]; multi-dose 5 mg/kg) was 490 ± 63 mm^3 and the “Final Tumor size mm^3 (mean ± SEM)” value ([8]; multi-dose 15 mg/kg) was 321 ± 33 mm^3. The “Average Tumor Growth Inhibition (%)” value ([9]; multi-dose 5 mg/kg) was 123% and the “Average Tumor Growth Inhibition (%)” value ([9]; multi-dose 15 mg/kg) was 137%.
